Laboratory results as given in patent publication US20220089752A1 (University of California, published 2022).
Substitutions are numbered along the chain they refer to. One block for each molecule: values may come before it.

Assays:
[1] = target: activated leukocyte cell adhesion molecule (ALCAM) on human cell lines (human) (UniProt Q13740); assay: cell-based or functional assay
[2] = target: ephrin type-A receptor 2 (EphA2) on cells (human) (UniProt P29317); assay: cell-based or functional assay
[3] = target: T1, activated leukocyte cell adhesion molecule (ALCAM) on human cell lines (human, UniProt Q13740 28-583); assay: FACS titration of the IgG1 on live DU145 cells, curve fit (apparent KD)
T1 construct: whole, on cells
T1 sequence (looked up): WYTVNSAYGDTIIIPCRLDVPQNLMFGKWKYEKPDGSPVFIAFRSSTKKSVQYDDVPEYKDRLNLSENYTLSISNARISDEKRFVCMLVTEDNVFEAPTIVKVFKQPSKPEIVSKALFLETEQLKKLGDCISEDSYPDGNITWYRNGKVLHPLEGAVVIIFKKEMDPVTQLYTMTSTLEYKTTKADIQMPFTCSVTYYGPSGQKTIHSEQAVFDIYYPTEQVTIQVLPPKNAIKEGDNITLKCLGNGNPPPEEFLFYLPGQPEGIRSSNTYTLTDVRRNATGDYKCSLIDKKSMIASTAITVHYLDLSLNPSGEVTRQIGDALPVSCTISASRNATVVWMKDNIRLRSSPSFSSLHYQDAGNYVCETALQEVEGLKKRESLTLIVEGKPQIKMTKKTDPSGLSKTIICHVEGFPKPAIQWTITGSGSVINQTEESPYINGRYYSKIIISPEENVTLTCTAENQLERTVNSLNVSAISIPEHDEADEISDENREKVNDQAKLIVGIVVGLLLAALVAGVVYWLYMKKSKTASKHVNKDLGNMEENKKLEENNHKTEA
Procedure: (§1) FIGS. 6A-6D graphically illustrate the selection and characterization of anti-ALCAM scFvs from phage display library. FIG. 6A: Enrichment of ALCAM-binding phage through three rounds of selection. Recombinant Fc-fusion of ALCAM-V domain was immobilized on magnetic beads and utilized for scFv phage display library selection. Enrichment was calculated by dividing phage output titer by input phage titer (y-axis on the left). Binding activity of polyclonal phages amplified from each round output was described as folds against the binding of the unselected phage library (y-axis on the right). FIG. 6B: After three rounds of selection, FACS was performed to screen out monoclonal phage binding to the ALCAM^high DU145 cell line. FIG. 6C: Apparent KD of 3F1 IgG on live ALCAM-expressing cells. DU145 cells were incubated with varying concentrations of 3F1 IgG at 4° C. overnight and analyzed by FACS using Alexa® 647-conjugated anti-human IgG. KD value was estimated by curve fitting using GraphPad Prism (GraphPad Software). FIG. 6D: Confocal microscopy study of cellular localization of anti-ALCAM 3F1 IgG. Tumor cell lines were seeded in chamber-well slide and incubated with 3F1 IgG at 37° C. for 2 hours. Antibodies were stained with Alexa® 647-conjugated anti-human antibody (red). […] ALCAM expression measured using 3F1 IgG was shown below microscopic images (lower panel). […]

[4] = target: T1, activated leukocyte cell adhesion …; assay: FACS on live DU145 cells, 3F1 IgG at 4 C overnight, Alexa 647 anti-human IgG
Procedure: as §1

[5] = target: T2, ephrin type-A receptor 2 (EphA2) on cells (human, UniProt P29317 24-976); assay: flow cytometry on DU145 cells, 1 h at 25 C, 40 pM to 125 nM, MFI curve fit (apparent KD)
T2 construct: whole, on cells
Procedure: (§2) In these experiments, apparent binding affinity of RYR IgG1 versus RYRgerm_102919_15 IgG1 on DU145 cells was evaluated. In these experiments, DU145 cells were incubated for 1 h at 25° C. with RYR or RYRgerm_102919_15 at a range of concentrations between 40 pM to 125 nM, washed, and binding detected with anti-human Alexa Fluor 647. MFI values were curve-fit to generate the apparent KD values.

recombinant human EphA2 [6] = target: T3, recombinant human EphA2 (human, UniProt P29317 25-534); assay: BLI (Probe Life Gator), IgG1 on anti-human Fc probes, 100 nM recombinant human EphA2, 25 C
T3 construct: also called human recombinant EphA2 protein

[7] = target: T2, ephrin type-A receptor 2 (EphA2) on …; assay: flow cytometry on DU145 cells (apparent KD)
Procedure: as §2

recombinant human EphA2 [8] = target: T3, recombinant human EphA2; assay: flow cytometry of yeast-displayed scFv with human recombinant EphA2, curve fit of normalized MFI (apparent KD)
Excerpt: FIGS. 10A-10B graphically illustrate the selection and characterization of anti-EphA2 scFvs from yeast display mutagenesis libraries. FIG. 10A: Apparent KD measurement of four new EphA2 scFvs binding affinity to human recombinant EphA2 protein. In this experiment, RYRgerm is the germline version of RYR. The remaining samples were RYRgerm derivatives with high binding affinity. Apparent KD values were estimated by curve-fitting of normalized MFI values. FIG. 10B: Apparent KD measurement of four new EphA2 scFvs binding affinity to mouse recombinant EphA2-Fc fusion protein. Apparent KD values were estimated by curve-fitting of normalized MFI values.
(§3) This Example describes experiments performed to identify new versions of EphA2 binding scFv antibodies with improved binding affinity. The original EphA2 binding scFv RYR has been described previously in PCT/US2015/039741, in which EphA2 binding scFv RYR was named HCA-F1 and a germline version of RYR was named RYRgerm. To identify new versions of EphA2 binding scFv antibodies improved binding affinity for EphA2, yeast display mutagenesis libraries based on RYRgerm were generated and selected by FACS for higher affinity binders. Four new EphA2 scFvs with high binding affinity for EphA2 were identified and named […], RYRgerm_102919_15, RYRgerm_102919_22, and RYRgerm_102919_33, respectively. The amino acid sequences of VH and VL regions as well as the CDRs for these newly identified EphA2 scFvs are presented in Tables 4-5 and the Sequence Listing. In these eperiments, both human and mouse recombinant EphA2 proteins were used in selection to maintain cross-species binding. Apparent affinity was measured by flow cytometry for binding to both human and mouse EphA2.

[9] = target: T4, mouse recombinant EphA2-Fc fusion protein (mouse, UniProt Q03145 26-535, limits assumed); assay: flow cytometry of yeast-displayed scFv with mouse recombinant EphA2-Fc, curve fit of normalized MFI (apparent KD)
T4 construct: also called mouse EphA2; not shown: Fc part
Excerpt: (§4) In this experiment, RYRgerm is the germline version of RYR. The remaining samples were RYRgerm derivatives with high binding affinity. Apparent KD values were estimated by curve-fitting of normalized MFI values. FIG. 10B: Apparent KD measurement of four new EphA2 scFvs binding affinity to mouse recombinant EphA2-Fc fusion protein. Apparent KD values were estimated by curve-fitting of normalized MFI values.
as §3

recombinant human EphA2 [10] = target: T3, recombinant human EphA2; assay: flow cytometry of yeast-displayed scFv with recombinant human EphA2 at 0-100 nM
Excerpt: as §4
as §3, with “In these eperiments, both human and mouse recombinant EphA2 proteins were used in selection to maintain cross-species binding.” left out

T4 sequence (Q03145 26-535 limits assumed): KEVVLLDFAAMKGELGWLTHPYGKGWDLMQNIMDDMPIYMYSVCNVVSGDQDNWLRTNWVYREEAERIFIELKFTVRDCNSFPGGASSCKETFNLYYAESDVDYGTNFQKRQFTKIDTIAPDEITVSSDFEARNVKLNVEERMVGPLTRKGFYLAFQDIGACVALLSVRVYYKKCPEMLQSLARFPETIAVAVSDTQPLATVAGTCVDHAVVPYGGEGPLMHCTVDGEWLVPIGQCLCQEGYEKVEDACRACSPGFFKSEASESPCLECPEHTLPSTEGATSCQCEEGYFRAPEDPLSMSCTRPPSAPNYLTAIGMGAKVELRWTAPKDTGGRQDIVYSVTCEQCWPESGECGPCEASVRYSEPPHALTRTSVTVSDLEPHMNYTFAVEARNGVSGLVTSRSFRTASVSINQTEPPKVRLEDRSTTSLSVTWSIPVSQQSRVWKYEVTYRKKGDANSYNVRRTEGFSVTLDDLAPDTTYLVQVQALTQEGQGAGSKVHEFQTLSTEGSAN
T3 sequence (P29317 25-534 limits assumed): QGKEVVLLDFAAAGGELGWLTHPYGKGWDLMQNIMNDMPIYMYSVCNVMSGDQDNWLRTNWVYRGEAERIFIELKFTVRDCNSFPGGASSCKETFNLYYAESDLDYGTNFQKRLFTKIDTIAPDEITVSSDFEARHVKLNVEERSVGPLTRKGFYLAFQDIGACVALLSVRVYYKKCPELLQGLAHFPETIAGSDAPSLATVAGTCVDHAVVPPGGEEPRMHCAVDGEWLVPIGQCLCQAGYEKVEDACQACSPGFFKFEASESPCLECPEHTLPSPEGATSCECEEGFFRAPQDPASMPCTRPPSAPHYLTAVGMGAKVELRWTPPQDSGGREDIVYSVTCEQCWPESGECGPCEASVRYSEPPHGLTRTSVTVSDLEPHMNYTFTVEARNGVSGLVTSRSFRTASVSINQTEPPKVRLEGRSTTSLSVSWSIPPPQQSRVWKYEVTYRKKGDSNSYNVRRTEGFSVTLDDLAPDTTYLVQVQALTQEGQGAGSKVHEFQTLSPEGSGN
T2 sequence (P29317 24-976): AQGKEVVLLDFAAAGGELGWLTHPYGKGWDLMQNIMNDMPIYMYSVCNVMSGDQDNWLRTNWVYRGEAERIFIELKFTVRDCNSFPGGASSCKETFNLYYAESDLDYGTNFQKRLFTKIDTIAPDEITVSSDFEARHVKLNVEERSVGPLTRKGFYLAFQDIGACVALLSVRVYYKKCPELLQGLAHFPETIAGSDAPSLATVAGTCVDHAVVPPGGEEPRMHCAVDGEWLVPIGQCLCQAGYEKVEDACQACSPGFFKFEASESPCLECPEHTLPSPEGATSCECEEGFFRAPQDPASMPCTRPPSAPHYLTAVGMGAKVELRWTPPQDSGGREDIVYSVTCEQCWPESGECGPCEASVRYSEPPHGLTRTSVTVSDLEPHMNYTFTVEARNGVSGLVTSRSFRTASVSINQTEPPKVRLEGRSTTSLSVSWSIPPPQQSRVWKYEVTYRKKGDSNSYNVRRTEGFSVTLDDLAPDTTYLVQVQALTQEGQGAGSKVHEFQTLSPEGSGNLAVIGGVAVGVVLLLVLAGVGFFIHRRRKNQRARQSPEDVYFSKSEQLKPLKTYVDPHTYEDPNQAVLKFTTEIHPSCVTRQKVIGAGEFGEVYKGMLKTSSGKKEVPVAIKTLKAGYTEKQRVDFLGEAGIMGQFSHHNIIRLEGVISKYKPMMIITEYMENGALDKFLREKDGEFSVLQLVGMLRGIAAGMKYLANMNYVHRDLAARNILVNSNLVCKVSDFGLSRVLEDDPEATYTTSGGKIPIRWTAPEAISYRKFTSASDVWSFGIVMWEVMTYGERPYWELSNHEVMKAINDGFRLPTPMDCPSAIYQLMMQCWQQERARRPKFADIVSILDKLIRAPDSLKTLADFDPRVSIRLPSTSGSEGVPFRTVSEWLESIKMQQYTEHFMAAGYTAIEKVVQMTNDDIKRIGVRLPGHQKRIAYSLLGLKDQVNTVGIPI
Chain of ephrin type-A receptor 2 (EphA2) on cells (human) (P29317 24-976): as above

B4: RYRgerm_102919_22 scFv (scFv)
scFv: EVQLVESGGGLVQPGGSLRLSCAASGFTFSSYSMNWVRQAPGKGLEWVSYISSSSSTIYYADSVKGRFTISRDNAKNSLYLQMNSLRAEDTAVYYCARYRLPNFWSGYPNYGMDVWGQGTTVTVSSGGGGSGGGGSGGGGSQSVLTQPPSVSGAPGQRVTISCTGSSSNIGAGYDVHWYQQLPGTAPKLLIYGNSNRPSGVPDRFSGSKSGTSASLAITGLQAEDEADYYCQSYDSSLSGHVVFGGGTKLTVL
Kd (recombinant human EphA2 [8]): 28.1 nM
Kd [9]: 1.34 nM

B6: RYRgerm_102919_33 scFv (scFv)
scFv: B4 scFv with L101F, N103D
Kd (recombinant human EphA2 [8]): 42.5 nM
Kd [9]: 2.87 nM

B7: RYRgerm_102919_15 scFv (scFv)
scFv: B4 scFv with M113T
Kd (recombinant human EphA2 [8]): 5.58 nM
Kd [9]: 2.01 nM
EC50 (read off the curve) (recombinant human EphA2 [10]): ~5 nM

B8: RYRgerm_102919_14 scFv (scFv)
scFv: B4 scFv with F29S
notes: also called RYRgerm_102019_14
Kd (recombinant human EphA2 [8]): 21.3 nM
Kd [9]: 2.12 nM

Further lines, results first:

ALCAM Internalization (% over ctrl, Mean, n = 2); HEK293-EphA2#2 cells [1]: 14.6 % over ctrl
ALCAM Internalization (% over ctrl, Mean, n = 2); HEK293-EphA2#8 cells [1]: 0.5 % over ctrl
ALCAM Internalization (% over ctrl, Mean, n = 2); HEK293-EphA2#31 cells [1]: 9.2 % over ctrl
ALCAM Internalization (% over ctrl, Mean, n = 2); HEK293-EphA2#42 cells [1]: -16.5 % over ctrl
ALCAM Internalization (% over ctrl, Mean, n = 2); HEK293-EphA2#C9 cells [1]: -9.6 % over ctrl
ALCAM Internalization (% over ctrl, Mean, n = 2); HEK293-EphA2-0.02 cells [1]: 28.6 % over ctrl
ALCAM Internalization (% over ctrl, Mean, n = 2); HEK293-EphA2-0.1 cells [1]: -22.4 % over ctrl
ALCAM Internalization (% over ctrl, Mean, n = 2); HEK293-EphA2-0.5 cells [1]: -36.3 % over ctrl
ALCAM Internalization (% over ctrl, Mean, n = 2); HEK293-EphA2-2.5 cells [1]: 7.1 % over ctrl
ALCAM Internalization (% over ctrl, Mean, n = 2); HEK293-SiRNA2 cells [1]: -6 % over ctrl
ALCAM Internalization (% over ctrl, Mean, n = 2); HEK293-siRNA1 cells [1]: -3.4 % over ctrl
ALCAM Internalization (% over ctrl, Mean, n = 2); HEK293-siRNA3 cells [1]: -4.4 % over ctrl
ALCAM Internalization (% over ctrl, Mean, n = 2); HEK293 cells [1]: 10.8 % over ctrl
surface EphA2 removed from pancreatic cancer cells (FACS) [2]: 85%
Molecule: control C10/RYR bsIgG (bispecific antibody)

Kd [3]: 0.0206 nM
EC50 (read off the curve) [4]: ~0.02 nM
B1: anti-ALCAM 3F1 IgG1 (antibody, V domains shown)
VH: EVQLVESGGGLVKPGGSLRLSCAASGFTLSDYSMNWVRQAPGKGLEWVASISSRSSYIYYADSVKGRFTISRDNAKNSLYLGMNSLRAEDTAVYYCTGGQGYSGYDGFQHWGQGTLVTVSS
VL: QSALTQPPSASGTPGQRVTISCSGSSSNIGSNSVSWYQQLPGTAPKLLIYSNTHRPSGVPDRFSGSKSGTSASLAISGLLSEDEADYYCASWDDSLNGGVFGGGTQLTVL
notes: also called anti-ALCAM mAb 3F1

Kd [5]: 23.7 nM
Kd (recombinant human EphA2 [6]): ~28 nM
koff (recombinant human EphA2 [6]): 0.0145 s⁻¹
kon (recombinant human EphA2 [6]): 518000 M⁻¹ s⁻¹
B2: RYR IgG1 (antibody, V domains shown)
VH: QVQLQESGGGLVQPGGSLRLSCAASGFTFSSYSMNWVRQAPGKGLEWVSYISSSSSTIYYADSVKGRFTISRDNAKNSLYLQMNSLRAEDTAVYYCARYRLPDFWSGYPNYGMDVWGQGTTVTVSS
VL: QSVLTQPPSVSGAPGQRVTISCTGSSSNIGAGYDVHWYQQLPGTAPKLLIYGNSNRPSGVPDRFSGSKSGTSASLAITGLQAEDEADYYCQSYDSSLSGHVVFGGGT
notes: Recombinant human IgG1 built from the original EphA2 scFv RYR; also called original RYR; HCA-F1

Kd [5]: 0.23 nM
Kd (recombinant human EphA2 [6]): ~5 nM
fold increase in binding affinity against RYR IgG1 (recombinant human EphA2 [6]): ~5 fold
koff (recombinant human EphA2 [6]): 0.00132 s⁻¹
kon (recombinant human EphA2 [6]): 262000 M⁻¹ s⁻¹
fold increase in binding affinity against RYR IgG1 [7]: ~100 fold
B3: RYRgerm_102919_15 IgG1 (antibody, V domains shown)
VH: B2 VH with Q1E, Q5V, D103N, M113T
VL: QSVLTQPPSVSGAPGQRVTISCTGSSSNIGAGYDVHWYQQLPGTAPKLLIYGNSNRPSGVPDRFSGSKSGTSASLAITGLQAEDEADYYCQSYDSSLSGHVVFGGGTKLTVL
notes: Recombinant human IgG1 built from the scFv RYRgerm_102919_15

Kd (recombinant human EphA2 [8]): 355 nM
Kd [9]: 115 nM
B5: RYRgerm scFv (scFv)
chain: B4 scFv with N103D
